Measured values as given in patent publication US8703915B2, “Mutant proteins and methods for producing them” (Heptares Therapeutics Limited, priority 2009, dated 2014).

B1: 1363: 5HT2C receptor mutant, residue 7.48 to alanine (protein, listed as Homo sapiens)
chain: MVNLRNAVHSFLVHLIGLLVWQCDISVSPVAAIVTDIFNTSDGGRFKFPDGVQNWPALSIVIIIIMTIGGNILVIMAVSMEKKLHNATNYFLMSLAIADMLVGLLVMPLSLLAILYDYVWPLPRYLCPVWISLDVLFSTASIMHLCAISLDRYVAIRNPIEHSRFNSRTKAIMKIAIVWAISIGVSVPIPVIGLRDEEKVFVNNTTCVLNDPNFVLIGSFVAFFIPLTIMVITYCLTIYVLRRQALMLLHGHTEEPPGLSLDFLKCCKRNTAEEENSANPNQDQNARRRKKKERRPRGTMQAINNERKASKVLGIVFFVFLIMWCPFFITNILSVLCEKSCNQKLMEKLLNVFVWIGYVCSGANPLVYTLFNKIYRRAFSNYLRCNYKVEKKPPVRQIPRVAATALSGRELNVNIYRHTNEPVIEKASDNEPGIEMQVENLELPVNPSSVVSERISSV
B2: M93A: 5HT2C receptor mutant, M93 to alanine (protein, UniProt P28335 33-458, looked up, variant M93A)
5-hydroxytryptamine receptor …: IVTDIFNTSDGGRFKFPDGVQNWPALSIVIIIIMTIGGNILVIMAVSMEKKLHNATNYFLASLAIADMLVGLLVMPLSLLAILYDYVWPLPRYLCPVWISLDVLFSTASIMHLCAISLDRYVAIRNPIEHSRFNSRTKAIMKIAIVWAISIGVSVPIPVIGLRDEEKVFVNNTTCVLNDPNFVLIGSFVAFFIPLTIMVITYCLTIYVLRRQALMLLHGHTEEPPGLSLDFLKCCKRNTAEEENSANPNQDQNARRRKKKERRPRGTMQAINNERKASKVLGIVFFVFLIMWCPFFITNILSVLCEKSCNQKLMEKLLNVFVWIGYVCSGINPLVYTLFNKIYRRAFSNYLRCNYKVEKKPPVRQIPRVAATALSGRELNVNIYRHTNEPVIEKASDNEPGIEMQVENLELPVNPSSVVSERISSV
B3: L366: 5HT2C receptor mutant, residue 7.51 (L366, L in NPLVY) to alanine (protein, UniProt P28335 33-458, looked up, variant L366A)
5-hydroxytryptamine receptor …: IVTDIFNTSDGGRFKFPDGVQNWPALSIVIIIIMTIGGNILVIMAVSMEKKLHNATNYFLMSLAIADMLVGLLVMPLSLLAILYDYVWPLPRYLCPVWISLDVLFSTASIMHLCAISLDRYVAIRNPIEHSRFNSRTKAIMKIAIVWAISIGVSVPIPVIGLRDEEKVFVNNTTCVLNDPNFVLIGSFVAFFIPLTIMVITYCLTIYVLRRQALMLLHGHTEEPPGLSLDFLKCCKRNTAEEENSANPNQDQNARRRKKKERRPRGTMQAINNERKASKVLGIVFFVFLIMWCPFFITNILSVLCEKSCNQKLMEKLLNVFVWIGYVCSGINPAVYTLFNKIYRRAFSNYLRCNYKVEKKPPVRQIPRVAATALSGRELNVNIYRHTNEPVIEKASDNEPGIEMQVENLELPVNPSSVVSERISSV

Tests used:
5HT2C receptor [1] = assay: Two point thermostability assay, SCH23390 agonist binding to 5HT2C alanine scan mutants; type: physicochemical, human
Protocol: An alanine scan has been carried out on the 5HT2C receptor in the presence of the agonist SCH23390 in order to stabilise the agonist conformation.
(§1) 5HT2C receptor was solubilised from transiently transfected mammalian cells about 40 hours post transfection, in 50 mM Hepes pH7.4/100 mM KCl/0.5% DDM/(0.1% CHS/0.6% CHAPS was added to cells for SCH23390 agonist assay) and protease inhibitor. Cell lysates were left at 4° C. on a rotator and then cleared by centrifugation at 13,200 rpm for 20 minutes at 4° C. Thermostability analysis was performed directly on the soluble lysate. The Tm was determined by incubating 108 μl of the lysate with [N^6-methyl-^3H]Mesulergine radioligand at a final concentration of 17 nM or 9 nM [^3H]SCH23390 for one hour at 4° C. The six ligand incubations are then incubated at six different temperatures from 25° C. to 55° C., for thirty minutes. Receptor bound and free radioligand were separated using G25 Sephadex spin columns.

5HT2C receptor [2] = assay: Thermostability of 5HT2C receptor bound to agonist SCH23390; type: physicochemical, human; conditions: for increase of Tm: agonist SCH23390 bound, versus parent 5HT2C
Protocol: An alanine scan has been carried out on the 5HT2C receptor in the presence of the agonist SCH23390 in order to stabilise the agonist conformation. Similar to A2A, it appears that mutating L2.46 (L95 in 5HT2C) to alanine confers significant stability on this receptor increasing the Tm of the receptor by 5.4° C. (FIG. 7). It is notable that in addition to L95, mutating the nearby M93 (two residues away from L2.46) to alanine also confers stability to the agonist bound receptor, resulting in an increase of 2.9° C.
A2AR-(2-316) expression was carried out by using the pRG/III-hs-MBP E. coli expression vector and DH5α cells. Cells were grown at 37° C. in 2 L flasks containing 500 mL of 2×TY medium supplemented with Ampicillin (100 μg/mL) and glucose (0.2% w/v). At OD600≈0.7, IPTG and theophylline were added at final concentrations respectively of 0.5 mM and 100 μM, and the temperature was reduced to 20° C. After 22 to 24 hours, cells were harvested in aliquots of 14 mL, centrifuged for 30 min and stored at −20° C. Both 5HT2C and M4 receptors were transiently expressed in HEK293T cells using GeneJuice transfection reagent used according to the manufacturers guidelines.
5HT2C receptor was solubilised from transiently transfected mammalian cells in 50 mM Hepes pH7.4, 100 mM KCl, 0.5% DDM (0.1% CHS/0.6% CHAPS was added to cells for SCH23390 agonist assay). Tm analysis was performed directly on the soluble lysate. The Tm was determined by incubating 108 μl of the lysate with [N^6-methyl-^3H]Mesulergine radioligand at a final concentration of 17 nM or 9 nM [^3H]SCH23390 for one hour at 4° C. The six ligand incubations are then incubated at six different temperatures from 25° C. to 55° C., for thirty minutes. Receptor bound and free radioligand were separated using a 96-well plate gel filtration assay.
as §1

5HT2C receptor [3] = assay: Antagonist binding to 5HT2C NPxxY motif alanine mutants (Table 1); set-up: species or system human; Average / Average - BG: unit not given here
Protocol: An alanine scan was carried out in a similar fashion on an adenosine A2A receptor along with the 5HT2C receptor in the presence of the antagonist Mesulergine. Both alanine scans were carried out in order to further stabilize the antagonist conformation. […] The motif in Adenosine A2A is NPFIY (SEQ ID NO: 364) and for the 5HT2C is NPLVY (SEQ ID NO: 363). Therefore mutations in this region of the receptor contain stabilising mutations specific to the agonist conformation and detrimentally effect antagonist binding.
as §1

Molecule	thermostability (agonist binding at the destabilising temperature compared to wild type) (5HT2C receptor [1])	increase of Tm (5HT2C receptor [2]) [°C]	Tm (5HT2C receptor [2]; bound to agonist SCH23390) [°C]	% of Wildtype binding (5HT2C receptor [3]; antagonist Mesulergine binding) [%]	DPM1 (5HT2C receptor [3]; antagonist Mesulergine binding, replicate 1) [DPM]	DPM2 (5HT2C receptor [3]; antagonist Mesulergine binding, replicate 2) [DPM]	Average - BG (5HT2C receptor [3]; average minus background)	Average (5HT2C receptor [3]; average of DPM1 and DPM2)
B1	increased agonist binding compared to the wild type receptor							
B2		2.9	45.6					
B3	increased agonist binding compared to the wild type receptor	4		19.27	2515	1897	1774.5	2206
